According to patent US9968687B2, “Anti-DLL3 antibody drug conjugates” (AbbVie Stemcentrx LLC, priority 2013, dated 2018):

Target: T1, recombinant human DLL3-Flag (Homo sapiens, UniProt Q9NYJ7)
T1 construct: Based on the apparent size of the DLL3 antigen (where the ECD is approximately 56 kD); Flag; purchased Adipogen International
T1 sequence (Q9NYJ7 27-492 limits assumed): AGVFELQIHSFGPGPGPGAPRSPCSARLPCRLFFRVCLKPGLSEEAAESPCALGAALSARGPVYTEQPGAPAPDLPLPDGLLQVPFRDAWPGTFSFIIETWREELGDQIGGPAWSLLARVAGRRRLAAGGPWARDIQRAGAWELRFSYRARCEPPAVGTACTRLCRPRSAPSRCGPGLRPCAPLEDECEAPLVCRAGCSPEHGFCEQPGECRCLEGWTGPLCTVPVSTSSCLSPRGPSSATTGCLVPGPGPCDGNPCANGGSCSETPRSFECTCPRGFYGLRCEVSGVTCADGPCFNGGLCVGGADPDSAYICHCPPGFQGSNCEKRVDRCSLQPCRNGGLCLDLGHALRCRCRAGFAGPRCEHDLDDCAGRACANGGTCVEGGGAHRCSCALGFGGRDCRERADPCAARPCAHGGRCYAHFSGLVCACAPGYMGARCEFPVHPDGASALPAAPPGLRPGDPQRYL
Assay: Antibody binning by competition on ForteBio RED
Type: binding
Description: As to antibody binning, a ForteBio RED was used per manufacturer's instructions to identify competing antibodies that bound to the same or different bins. Briefly, a reference antibody (Ab1) was captured onto an anti-mouse capture chip, a high concentration of non-binding antibody was then used to block the chip and a baseline was collected. Monomeric, recombinant human DLL3-Flag (Adipogen International) was then captured by the specific antibody (Ab1) and the tip was dipped into a well with either the same antibody (Ab1) as a control or into a well with a different test antibody (Ab2). […] If no further binding occurred, as determined by comparing binding levels with the control Ab1, then Ab2 was determined to be in the same bin. As known in the art this process can be expanded to screen large libraries of unique antibodies using a full row of antibodies representing unique bins in a 96-well plate. […] Based on the apparent size of the DLL3 antigen (where the ECD is approximately 56 kD) and the resolution of the binning methodology employed, it is believed that the nine identified bins represent the majority of the bins present on the DLL3 extracellular antigen.

bin relation to other antibodies: found not to bin with SC16.34 or SC16.56
B1: SC16.23: murine anti-DLL3 monoclonal antibody, sequences in FIGS. 3A and 3B (antibody, V domains shown)
VL: QIVLTQSPAIMSASPGEKVTLTCSASSSVSSRYLYWYQQKPGSSPKLWIYSTSNLASGVPARFSGSGSGTSYSLIISSMEAEDAASYFCHQWSNYPLTFGAGTKLELK
VH: QVTLKESGPGILQPSQTLSLTCSFSGFSLSTSNTGIGWIRQPSGTGLEWLAHIWWNDDKYYNPSLKSRLTISKETSNNQVFLKITNVDTADTASYFCVQIGRDYSNYAWYFDVWGAGTTVTVSS
